According to the supplement of paper PMC10567573:

B1: PDLIM4 (parent)
chain: FLDERLYCESHAKARVKPPEGYDV

Variants of: B1
Test: protein stability index of a GFP-peptide fusion (GPS, HEK-293T) (PSI 1-6); higher = more stable
Conditions: c terminus: a fixed tail appended
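Also: lentivirally expressed fusions sorted by FACS into six bins by GFP to DsRed ratio, PSI derived from sequencing read proportions per bin multiplied by bin number.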

Protein stability index of substitutions, site by site:
H11: S 1.98; C 1.04; F 1.48; N 1.86; V 1.72; T 1.99; Y 2.18; A 1.85; M 2.23; L 1.48; D 2.39; I 2.19; K 1.64; R 1.79; Q 1.34; E 1.34
D3: V 2.5; S 1.03; R 2.32; T 1.31
S10: V 1.4; K 2.12; W 3.67; T 1.79; A 1.44; N 1.26; M 2.54; L 2.69; I 2.17; Q 1.88; C 1.95; F 1.61; D 2.01; E 2.1; P 2.32; Y 2.75; H 1.58; G 1.97
C8: V 2.28; M 1.64; F 2.3; N 2.59; H 2.71; I 1.41; R 1.81; D 3.78; G 3.41; W 2.14; Y 2.17; E 3.52; Q 2.44; T 2.62; S 2.39; A 1.53; K 1.58; L 2.26
E4: R 3.33; D 1.71; Y 2.02; C 3.33; S 5.15; L 2.34; V 2.06
R5: G 2.47; L 1.98; T 1.3; V 2.35; M 2.33; K 1.66; S 2.37; E 2.42; P 2.98; F 1.52; A 1.86; N 1.49; D 2.11; Y 1.42; W 3.09; I 2.24
L6: N 3.08; E 3.09; Q 2.5; D 4.54; S 2.47; R 1.45; H 1.72; M 2.87; T 2.55; F 3.03; I 1.97; K 2.09; G 3.42; P 1.7; V 1.59
A14: E 1.31; S 2.01; Y 2.23; F 1.65; K 1.07; L 1.75; Q 2.29; G 2.7; M 1.76; H 2.56; D 1.36; N 1.39; I 2.02; R 2.57
Y7: G 2.04; N 4.26; Q 4.26; R 3.99; M 3.6; A 2.63; D 4.71; P 4.5; E 4.06; F 2.79; K 4.06; S 3.89; I 3.6; L 3.18; H 4.05; T 5.4; V 3.85; C 3.66
E9: Q 1.44; M 2.41; L 2.34; D 1.8; H 2.13; W 1.22; V 1.83; Y 2.13; T 1.31; G 1.74; N 2.58; F 1.49; A 1.57; S 1.97; K 1.42
K13: L 1.45; I 2.71; Y 2.63; D 1.32; P 2.24; C 1.21; M 2.85; H 2.18; N 1.36; Q 1.61; G 1.72
A12: M 1.53; Q 1.37; T 2.04; C 1.23; Y 1.77; F 3.29; R 1.82; D 2.48; I 1.6; E 1.47; N 1.42; G 2.68; L 1.28; H 1.77; S 1.42
